# Results from patent US20230338477A1 (published 2023).
# B1: 69348 (antibody, V domains shown)
# VH: QVQLVESGGGVVQPGRSLRLSCAASGFTFTTYGMHWVRQAPGKGLEWVAVIWYDGSNKYYGDSVKGRFTISRDNSKNTLYLQMNSLRVDDTAVYYCTRTHGYTRSSDGFDYWGQGTLVTVSS
# VL: DIQMTQSPSSLSASVGDRVTITCRASQSIRNVLGWFQQKPGKAPQRLIYAASSLQSGVPSRFSGSGSGTEFTLTISSLQPEDFATYYCLQHNFYPLTFGGGTKVEIK
# notes: Anti-hTfR antibody of the initial screen; only variable domains are tied to it
# B2: 69326 (antibody, V domains shown)
# VH: EVQLVESGGGLVQPGGSLRLSCAVSGFIFSSYEMNWVRQAPGKGLEWVSYISSSGSTIFYADSVKGRFTISRDNAKNSLYLQMNSLRAEDTAVYYCVSGVVLFDVWGQGTMVTVSS
# VL: EIVMTQSPATLSVSPGERATLSCRASQSVSSNFAWYQQKPGQAPRLLIYSASSRATGIPVRFSGSGSGTEFTLTISSLQSEDFAVYYCQQYNIWPRTFGQGTKVEIK
# notes: as for B1
# B3: 69332 (antibody, V domains shown)
# VH: QVTLRESGPALVKPSQTLTLTCTFSGFSLNTYGMFVSWIRQPPGKALEWLAHIHWDDDKYYSTSLKTRLTISKDTSKNQVVLTMTNMDPVDTATYYCARGHNNLNYIIHWGQGTLVTVSS
# VL: AIQMTQSPSSLSASVGDRVTITCRASQGIRNDLGWYQQKPGKAPKLLIYAASTLQSGVPSRFSGSGSGTDFTLTISSLQPEDFATYYCLQDYNYPFTFGPGTKVDIK
# notes: as for B1
# B4: 69331 (antibody, V domains shown)
# VH: QVQLVESGGGVVQPGRSLRLSCIASGFTFSVYGIHWVRQAPGKGLEWMAVISHDGNIKHYADSVKGRFTISRDNSKNTLYLQINSLRTEDTAVYYCAKDTWNSLDTFDIWGQGTMVTVSS
# VL: DIQLTQSPSSLSASVGDRVTITCWASQGISSYLAWYQQKPGKAPKLLIYAASTLQSGVPSRFSGSGSGTEFTLTISSLQPEDFATYYCQQLNSYPLTFGGGTKVEIK
# notes: as for B1
# B5: 69340 (antibody, V domains shown)
# VH: EVQLVESGGGLVQPGRSLRLSCAASGFTFDDKAMHWVRQVPGKGLEWISGISWNSGTIGYADSVKGRFIISRDNAKNSLYLQMNSLRAEDTALYYCAKDGDTSGWYWYGLDVWGQGTTVTVSS
# VL: EIVLTQSPATLSLSPGERATLSCRASQSVSSYLAWYQQKPGQAPRLLIHDVSNRATGIPARFSGSGSGTDFTLTISSLEPEDFVVYYCQQRSDWPITFGQGTRLEIK
# notes: as for B1
# Target: T1, human transferrin receptor 1 (hTfR) (human, UniProt P02786 89-760, limits assumed)
# T1 construct: also called TFRC; transferrin receptor protein 1
# Experiment: in vitro binding screen, method not described
# T1 sequence (P02786 89-760 limits assumed): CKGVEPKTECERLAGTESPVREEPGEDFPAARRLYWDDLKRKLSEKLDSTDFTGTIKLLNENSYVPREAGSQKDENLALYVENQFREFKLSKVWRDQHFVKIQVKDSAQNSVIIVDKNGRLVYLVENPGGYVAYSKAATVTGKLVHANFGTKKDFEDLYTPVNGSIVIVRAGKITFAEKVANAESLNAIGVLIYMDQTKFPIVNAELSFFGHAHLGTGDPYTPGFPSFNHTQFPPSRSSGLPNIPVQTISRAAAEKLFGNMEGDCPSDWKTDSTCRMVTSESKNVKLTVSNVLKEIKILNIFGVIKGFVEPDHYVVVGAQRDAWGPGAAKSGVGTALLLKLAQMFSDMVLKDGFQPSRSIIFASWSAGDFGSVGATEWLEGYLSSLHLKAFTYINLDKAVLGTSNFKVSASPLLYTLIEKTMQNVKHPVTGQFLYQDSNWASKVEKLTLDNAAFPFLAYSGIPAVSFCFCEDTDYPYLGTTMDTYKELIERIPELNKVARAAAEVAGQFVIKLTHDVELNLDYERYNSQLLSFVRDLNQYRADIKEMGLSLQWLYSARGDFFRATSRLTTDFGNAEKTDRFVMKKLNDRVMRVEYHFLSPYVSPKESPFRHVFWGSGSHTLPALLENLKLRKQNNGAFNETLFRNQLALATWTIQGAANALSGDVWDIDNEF
row,binding result,Binder
1,binds,B1
2,binds,B2
3,binds,B3
4,binds,B4
5,binds,B5
